Here are results for eight molecules from patent US20260070974A1 (NONA BIOSCIENCES SUZHOU, published 2026).

One may read the EC50 as the concentration giving half of the maximal effect. Broadly, the Kd is the free concentration of one partner at which half of the binding sites on the other are occupied at equilibrium, for simple one-to-one binding. By koff is commonly meant a measure of how fast the partners let go of each other. In general, kon refers to the second-order rate constant of association.

Test [1] has as its target T1, human Siglec-15 ECD-his protein (Acrobiosystems, Cat #: SG5-H52H3) (human, UniProt Q6ZMC9 20-263).
T1 construct: Bought protein; only its extracellular domain stood in the assay; also called human Siglec-15 protein; recombinant human Siglec-15 protein; not shown: his tag
T1 sequence: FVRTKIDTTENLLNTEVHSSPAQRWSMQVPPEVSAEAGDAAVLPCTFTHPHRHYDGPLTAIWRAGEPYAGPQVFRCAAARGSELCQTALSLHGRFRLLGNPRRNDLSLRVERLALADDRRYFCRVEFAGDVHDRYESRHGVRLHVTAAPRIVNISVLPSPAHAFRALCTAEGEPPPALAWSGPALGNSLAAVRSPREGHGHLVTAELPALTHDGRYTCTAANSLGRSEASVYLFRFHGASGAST
The experiment in a line: ELISA, coated human Siglec-15 ECD-his. Here is the method: […] human Siglec-15 ECD-his protein (Acrobiosystems, Cat #: SG5-H52H3) dissolved in PBS was added to an ELISA plate at 100 μL/well for coating and the plate was incubated overnight at 4° C. The ELISA plate was then blocked with PBST (PBS+0.05% Tween 20) containing 2% BSA at 200 μL/well and incubated at 37° C. for 1 h. The ELISA plate was washed 4 times with PBST. The anti-Siglec-15 antibody diluted in a gradient (5-fold dilution, starting concentration: 6.67 nM) was added to the ELISA plate at 100 μL/well and the plate was incubated at 37° C. for 1 h. The ELISA plate was washed 4 times with PBST. The goat anti-human IgG (H+L)-HRP (1:5000, Jackson, Cat #: 109-035-088) was added at 100 μL/well and the plate was incubated at 37° C. for 1 h. The ELISA plate was washed 4 times with PBST. The TMB substrate (Biopanda, Cat #: TMB-S-003) was added at 100 μL/well, and the plate was incubated at room temperature for 5 min, and then the stop buffer (Solarbio, Cat #: C1058) was added at 100 μL/well to stop the reaction.
A general note: An ELISA detects its analyte on a solid surface through an enzyme-linked reagent.

Test [2] concerns the target T1, human Siglec-15 ECD-his protein …. Put plainly: BLI (Octet RED96), antibody on AHC sensor, Siglec-15 ECD-his as analyte. On the procedure:
Recombinant Human Siglec-15 Protein Affinity was determined using an Octet RED96 instrument (ForteBio) and an anti-human IgG Fc capture sensor (AHC biosensor, ForteBio, Cat #: 18-5060) according to the detailed procedures and methods provided by the manufacturer. Specifically, candidate antibodies were each diluted to a final concentration of 6 µg/mL and directly immobilized on AHC biosensors for kinetic measurements. The antigenic protein Siglec-15 ECD-his protein (Acrobiosystems, Cat #: SG5-H52H3) was diluted with 10× Kinetics buffer to 3 concentrations of 60 nM, 30 nM, and 15 nM separately and injected as the analyte for 120 s with a dissociation time of 400 s and then subjected to regeneration with 10 mM glycine HCl (pH 1.5) for 15 s. The association rate (kon) and dissociation rate (kdis) were calculated using a simple one-to-one Languir binding model (Octet Red96 data analysis software). The equilibrium dissociation constant (kD) was calculated as the ratio of kdis/kon.
(In general: Biolayer interferometry detects binding as a change in optical thickness at a sensor tip.)

Test [3] has as its target T2, human Siglec-15 on CHO-K1/human Siglec-15 cells (KYinno, Beijing) (human, UniProt Q6ZMC9 20-328).
T2 sequence: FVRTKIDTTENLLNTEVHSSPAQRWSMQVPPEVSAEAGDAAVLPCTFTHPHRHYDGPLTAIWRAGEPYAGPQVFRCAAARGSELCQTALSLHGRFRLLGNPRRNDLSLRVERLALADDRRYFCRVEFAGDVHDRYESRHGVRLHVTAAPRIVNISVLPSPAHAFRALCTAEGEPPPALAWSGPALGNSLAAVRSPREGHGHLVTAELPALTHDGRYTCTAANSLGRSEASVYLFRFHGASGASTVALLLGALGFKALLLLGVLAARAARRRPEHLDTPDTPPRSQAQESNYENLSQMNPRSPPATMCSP
The experiment in a line: flow cytometry on CHO-K1/human Siglec-15 cells. On the procedure: (§1) CHO-K1/human Siglec-15 cells (KYinno, Beijing) were adjusted to a density of 1×10⁶/mL with PBS, and the cell suspension was added to a 96-well V-bottom plate at 100 μL/well. The 96-well V-bottom plate was centrifuged at 1000 rpm for 5 min and washed once with PBS+2% FBS. The cells were resuspended in 100 L of antibody diluted in a gradient (5-fold dilution, starting concentration: 500 nM) and incubated at 4° C. for 1 h, and PR300066 and hIgG1 were used as positive control and negative control, respectively. After 1 h, the cells were washed twice with PBS+2% FBS. The cells were incubated with 100 μL of Alexa Fluor 488 goat anti-human IgG (Jackson, Cat #: 109-545-098) at 4° C. for 1 h in the dark and then washed twice with PBS+2% FBS. The cells were then resuspended in 200 μL of PBS+2% FBS. The fluorescence intensity of the cells was analyzed using a BD FACSCanto™ II flow cytometer.
(In flow cytometry, cells or beads pass a laser one at a time.)

Test [4] concerns the target T3, cynomolgus monkey Siglec-15 on CHO-K1/cynomolgus monkey Siglec-15 cells (cynomolgus monkey, UniProt Q6ZMC9 20-328 (human entry)).
T3 chain: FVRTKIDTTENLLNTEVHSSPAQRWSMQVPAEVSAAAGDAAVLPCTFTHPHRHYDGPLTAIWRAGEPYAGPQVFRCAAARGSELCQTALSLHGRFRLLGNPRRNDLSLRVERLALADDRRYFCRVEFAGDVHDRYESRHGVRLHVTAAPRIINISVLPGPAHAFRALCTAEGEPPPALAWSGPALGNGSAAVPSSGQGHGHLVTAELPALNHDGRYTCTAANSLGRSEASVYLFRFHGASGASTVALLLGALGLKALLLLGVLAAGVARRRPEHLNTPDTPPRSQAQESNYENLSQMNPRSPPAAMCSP
The experiment in a line: flow cytometry on CHO-K1/cynomolgus monkey Siglec-15 cells. Here is the method:
as §1, with “cDNAs encoding cynomolgus monkey Siglec-15 (the amino acid sequence of which is set forth in SEQ ID NO: 155) were obtained by gene synthesis and cloned into the expression vector pcDNA3.1, and then the expression vector was transfected into CHO-K1 cells to construct CHO-K1/cynomolgus monkey Siglec-15” for “CHO-K1/human Siglec-15”, “cells expressing cynomolgus monkey Siglec-15. CHO-K1/cynomolgus monkey Siglec-15 cells” for “cells (KYinno, Beijing)”, “100 µL/well.” for “100 μL/well.”, “100 μL” for “100 L”, “BD FACS Canto™” for “BD FACSCanto™”

B1: PR301289-1 (antibody, human IgG1, kappa, V domains shown)
VH: QVQLVQSGAEVKKPGASVKVSCRASGYTFTSYDINWVRQATGQGLEWMGWMNPHSGDTGYAQNFQGRVTMTWQTSISTAYMELSSLRSEDTAVYYCARRRVGVYYYGMDVWGQGTTVTVSS
VL: ENVLTQSPGTLSLSPGERATLSCRASQSVSSSYFGWYQQKPGQAPRLLIYGASSRATGIPDRFSGSGSGTDFTLTISRLEPEDFAVYYCQQYGSSPITFGQGTRLEIKR
notes: PTM variant of PR301289: HFR3 N/Q; human IgG1/kappa
Molecule B1 yielded an EC50 in test [1] of 0.02 nM. In test [2], this molecule had a Kd of 0.116 nM, a koff of 3.89e-05 s⁻¹ and a kon of 337000 M⁻¹ s⁻¹.

B2: PR301289-2 (antibody, human IgG1, kappa, V domains shown)
VH: QVQLVQSGAEVKKPGASVKVSCRASGYTFTSYDINWVRQATGQGLEWMGWMNPHSGDTGYAQNFQGRVTMTWQTSISTAYMELSSLRSEDTAVYYCARRRVGVYYHGMDVWGQGTTVTVSS
VL: ENVLTQSPGTLSLSPGERATLSCRASQSVSSSYFGWYQQKPGQAPRLLIYGASSRATGIPDRFSGSGSGTDFTLTISRLEPEDFAVYYCQQYGSSPITFGQGTRLEIKR
notes: PTM variant of PR301289: HFR3 N/Q; CDRH3 YYY/YYH; human IgG1/kappa
Molecule B2 displayed an EC50 in test [1] of 0.029 nM. Besides, in test [3], the EC50 was 1.26 nM and the “Maximum (MFI)” value is 28800 MFI. In addition, in test [2], the Kd is 0.19 nM, the koff was 5.96e-05 s⁻¹ and the kon worked out at 314000 M⁻¹ s⁻¹. Also, in test [4], a half-maximal effect (EC50) was put at 1.34 nM and the “Maximum (MFI)” value was found to be 4420 MFI.

B3: PR300679 (antibody, human IgG1, kappa, V domains shown)
VH: QVQLQESGPGLVKPSGTLSLTCAVSGGSISSSNWWSWVRQPPGKGLEWIGEIYHSGSTNYNPSLKSRVTISVDKSKNQFSLKLSSVTAADTAVYYCAREYSSSWLSVMDAWGQGASVTVSS
VL: not shown
On to B3, for which, in test [3], the EC50 was determined as 1.03 nM and the “Maximum (MFI)” value was determined as 25300 MFI. In test [2], this molecule returned a Kd of 0.106 nM, a koff of 0.000102 s⁻¹ and a kon of 968000 M⁻¹ s⁻¹.

B4: PR301286-1 (antibody, human IgG1, kappa, V domains shown)
VH: QVQLVESGGGVVQPGKSLRLSCAASGFTFSSYGMHWVRQAPGKGLEWVAVIWIDASNRYYAASVKGRFTISRDNSKNTLYLQMNSLRAEDTAVYYCTRGYGDYAYVMDVWGQGASVTVSS
VL: DIVMTQSPLSLPVTPGEPASISCRSSQSLLPGNGYNYLDWYLQKPGQSPQLLIYLGSNRASGVPDRFSGSGSGTDFTLKISRVEAEDVGIYYCMQALQSPLTFGGGTKVEIKR
notes: PTM variant of PR301286: VH(HCDR2) G/A; human IgG1/kappa
The molecule B4 registered an EC50 in test [1] of 0.019 nM. In test [2], binding was put at a Kd of 0.0162 nM, the koff turned out to be 3.85e-06 s⁻¹ and the kon amounted to 238000 M⁻¹ s⁻¹.

B5: PR301286-3 (antibody, human IgG1, kappa, V domains shown)
VH: QVQLVESGGGVVQPGKSLRLSCAASGFTFSSYGMHWVRQAPGKGLEWVAVIWIDVSNRYYAASVKGRFTISRDNSKNTLYLQMNSLRAEDTAVYYCTRGYGDYAYVMDVWGQGASVTVSS
VL: DIVMTQSPLSLPVTPGEPASISCRSSQSLLPGNGYNYLDWYLQKPGQSPQLLIYLGSNRASGVPDRFSGSGSGTDFTLKISRVEAEDVGIYYCMQALQSPLTFGGGTKVEIKR
notes: PTM variant of PR301286: VH(HCDR2) G/V; human IgG1/kappa
In turn, B5 yielded an EC50 in test [1] of 0.019 nM. In addition, in test [2], the affinity, expressed as Kd, was 0.195 nM; the koff amounted to 6.44e-05 s⁻¹; the kon was 330000 M⁻¹ s⁻¹.

B6: PR301286-6 (antibody, human IgG1, kappa, V domains shown)
VH: QVQLVESGGGVVQPGKSLRLSCAASGFTFSSYGMHWVRQAPGKGLEWVAVIWIDASNRYYAASVKGRFTISRDNSKNTLYLQMNSLRAEDTAVYYCTRGYGDYAYVMDVWGQGASVTVSS
VL: DIVMTQSPLSLPVTPGEPASISCRSSQSLLPGNAYNYLDWYLQKPGQSPQLLIYLGSNRASGVPDRFSGSGSGTDFTLKISRVEAEDVGIYYCMQALQSPLTFGGGTKVEIKR
notes: PTM variant of PR301286: VH(HCDR2) G/A; VL(LCDR1) G/A; human IgG1/kappa
With B6, the EC50 in test [1] was determined as 0.029 nM. In addition, in test [2], the Kd was found to be 0.279 nM, the koff is 0.000107 s⁻¹ and the kon amounted to 384000 M⁻¹ s⁻¹.

B7: PR301286-7 (antibody, human IgG1, kappa, V domains shown)
VH: QVQLVESGGGVVQPGKSLRLSCAASGFTFSSYGMHWVRQAPGKGLEWVAVIWIDASNRYYAASVKGRFTISRDNSKNTLYLQMNSLRAEDTAVYYCTRGYGDYAYVMDVWGQGASVTVSS
VL: DIVMTQSPLSLPVTPGEPASISCRSSQSLLPGNTYNYLDWYLQKPGQSPQLLIYLGSNRASGVPDRFSGSGSGTDFTLKISRVEAEDVGIYYCMQALQSPLTFGGGTKVEIKR
notes: PTM variant of PR301286: VH(HCDR2) G/A; VL(LCDR1) G/T; human IgG1/kappa
Turning to B7, in test [1], the EC50 worked out at 0.025 nM. In test [2], this molecule yielded a Kd of 0.361 nM, a dissociation rate constant (koff) of 0.000137 s⁻¹ and a kon of 379000 M⁻¹ s⁻¹.

B8: PR301286-5 (antibody, human IgG1, kappa, V domains shown)
VH: QVQLVESGGGVVQPGKSLRLSCAASGFTFSSYGMHWVRQAPGKGLEWVAVIWIDASNRYYAASVKGRFTISRDNSKNTLYLQMNSLRAEDTAVYYCTRGYGDYAYVMDVWGQGASVTVSS
VL: DIVMTQSPLSLPVTPGEPASISCRSSQSLLPGSGYNYLDWYLQKPGQSPQLLIYLGSNRASGVPDRFSGSGSGTDFTLKISRVEAEDVGIYYCMQALQSPLTFGGGTKVEIKR
notes: PTM variant of PR301286: VH(HCDR2) G/A; VL(LCDR1) N/S; human IgG1/kappa
The molecule B8 registered an EC50 in test [1] of 0.02 nM. For the same molecule, in test [3], it took 1.81 nM to reach a half-maximal effect (EC50) and the “Maximum (MFI)” value is 24400 MFI. In test [2], this molecule had a Kd of 0.137 nM, a koff of 4.93e-05 s⁻¹ and a kon of 360000 M⁻¹ s⁻¹. In test [4], the midpoint of the response, the EC50, lay at 5.26 nM and the “Maximum (MFI)” value was found to be 4280 MFI.
